Molecular target: Mcm2-7 hexamer (budding yeast (endogenous in yeast extract) | budding yeast) (UniProt P29469)
Assay: negative-stain electron microscopy

Mcm2-7 hexamer, P29469 1-868; P24279 1-971; P30665 1-933; P29496 1-775; P53091 1-1017; P38132 1-845
stoichiometry N: 2 hexamers
